Laboratory results as given in the supplement of paper PMC12042874.
± gives the uncertainty stated by the source.

Assay: amyloid nucleation score (Sup35N fusion, yeast selection) (log enrichment); library NNK3; higher = more nucleation; inactive = no reads after selection
How it was run: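 The nucleation score is a DiMSum log enrichment of output over input reads, centred on the mode score of non-aggregating sequences. Sequences under 100 input reads were excluded, and reads came from Illumina sequencing of plasmid inserts. Psi-negative yeast expressing Sup35N fused to peptides of 20 random codons were induced with 100 μM copper sulfate for 24 hours and grown 7 days at 30°C on medium lacking adenine and uracil. Random libraries had three technical output replicates.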

Row | Substance | amyloid nucleation score
1 | HFFNPCQGHRNKVPRRAS | inactive
2 | HHRLSGEMSSWVATATCWVG | inactive
3 | LYIIFERD | inactive
4 | WWADA | inactive
5 | NNVKRSSPDSQVPSQVSMRF | inactive
6 | KFHIFFCSFCVPPE | 3.17 ± 0.082
7 | RTFPNTWHAMIFGCVNKPNC | inactive
8 | GYRSCCCEKLRSRSCGSSWA | inactive
9 | ICAGLWAD | inactive
10 | RGLYKVD | inactive
11 | VMYSGFRVILF | 0.751 ± 0.15
12 | YLVWVFPEWPC | 1.39 ± 0.13
13 | YNEHLQLAVWRYALTVGKVW | inactive
14 | WCLSCVLTNIRVRIPNRTVV | inactive
15 | VWRAWAINGTATWCLIGDHG | inactive
16 | LCYAWRSGSNTYMHMMNWSM | inactive
17 | TTKEVESNSAHCPKSSLACT | inactive
18 | MSHCYYEFARVPKWHERCPS | inactive
19 | IKTRAKLLYFQLVVLTNFLP | inactive
20 | PFENR | inactive
21 | RKLKHLS | inactive
22 | FWHILLEVRLAVWSQMRDMG | inactive
23 | FFIYVQTGPS | -0.922 ± 1.5
24 | FLSLC | inactive

Row | Substance | amyloid nucleation score
25 | LLDSVDMLGFVMWVFGEVTN | inactive
26 | VLSSWTIK | inactive
27 | LVEMKALRTD | inactive
28 | SCLSNIVFFFPCQCRSMIFS | 1.99 ± 0.063
29 | DSHGYIYLCVWVRTQNPWSV | inactive
30 | IYCVEERHFLNIYSRMSYYS | inactive
31 | LKADRVVSFFWLCSFIFTSI | inactive
32 | GASCLCWNYRDRLRTEVRYY | inactive
33 | DISFLSRSRYRKSHGVVNFS | 0.206 ± 0.43
34 | VKKDMRRLLMFRIGGKSFGG | inactive
35 | CVNVLQPGVTHSRMANLCSG | inactive
36 | LKLTMSFMSQDLIIHVIDCS | inactive
37 | IFSHSSPYNTPRK | inactive
38 | FFFRYILKGMPVLFAVCRHC | inactive
39 | AHRCFFHLSRHVRKYAIRQR | inactive
40 | CVVYIGCNATGFKC | 1.87 ± 0.059
41 | VCLMNVSLRRSSFGATTVLA | inactive
42 | KLMPVIVTFNRYFFGQVMEE | 1.2 ± 0.14
43 | WCAWAVTCLTGVISRPLHES | 0.042 ± 0.43
44 | CIYGKVFF | 0.309 ± 0.28
45 | CYFQYGNWFHLEGRNRSRSN | 1.17 ± 0.19
46 | VFLSICSEGTFCLGDLSGCV | 2.43 ± 0.082
47 | CLVSLVFRFIVY | inactive
48 | TNRFIFPFLNVTHAVLFIFT | 1.02 ± 0.19

Row | Substance | amyloid nucleation score
49 | YRNMFQPRRNEAARQQLSST | inactive
50 | LFLRDNF | inactive
51 | DRPRQRTAFVYRQWLMYYQ | inactive
52 | LTDSY | inactive
53 | SISPFN | inactive
54 | KDMMWDVSRPYFYLVTYQIG | inactive
55 | CAVFRVSRISINTDAIFITC | 1.74 ± 0.054
56 | IVRPLLNFLCDLCRKVALGK | inactive
57 | GQYPEYYWYLGTEFFTVVLF | inactive
58 | LRGARCYKSNRVIGVLCGSV | inactive
59 | YHCVRLFRVPMTISRGDAQK | -0.271 ± 0.59
60 | CPIWKDRDCFLLSIKYYALQ | -0.24 ± 0.31
61 | RGSSTIYNETGLLGRLKGM | inactive
62 | SFSSRRHYNLLPFRWFFRRN | inactive
63 | SFVQRVSLLMSVSVFETASS | inactive
64 | VLLMLLTV | inactive
65 | VNCATWNLNFTRMFMACIGL | 1.28 ± 0.12
66 | CRYSSYVPVGLYKKWGICWM | inactive
67 | VDLRLDY | inactive
68 | YIGFGGDCSVSAFVTCQLGF | inactive
69 | WFYVIGTVMWYSLNAGYYMW | inactive
70 | SNRIYHVVFID | 1.89 ± 0.1
71 | LSKVVLLVFKGTP | inactive
72 | KMCIDFEPELYNLFLLAFHQ | inactive

Row | Substance | amyloid nucleation score
73 | LLSADFSFSSVEMKLARLGV | 1.22 ± 0.18
74 | NPDCSQTMARGLRNSLVFLQ | inactive
75 | FAQYYDSVPIDEDTIQIVHI | inactive
76 | KGALRFITYSSMLVYYLNLG | inactive
77 | IRGKYRLVVRDSLNVTPYRV | inactive
78 | YYNTYCTVDIYYLNPCVNLQ | 3.01 ± 0.056
79 | RGSGWRTYVCTGSYALRV | inactive
80 | RFSTGDIWRYPDGNMFWTSL | inactive
81 | PLCWNLNIRDTGIYRPRMRP | inactive
82 | ISRLR | inactive
83 | LDRSVMIRFGLELMRWSSGG | 0.356 ± 0.35
84 | HIVKKFPSPMRITWCGSPFQ | inactive
85 | VPVRSSYMTEMYVCSGISPR | inactive
86 | ADIGPHRCVLGAMMRWCRQT | inactive
87 | YPNMWLDEYRMVFAYYLPCG | inactive
88 | VLVCYC | inactive
89 | VKKSDWAVGLVDSDQCVHFD | inactive
90 | YVNLCLGANPRSYMFKYGTH | 0.197 ± 0.66
91 | YFLYLFRSVQCMLCHALNFN | 0.586 ± 0.15
92 | RRAAEKFFNEPTWERHLVSG | inactive
93 | KGYRINSNFNKFNKPLCSAI | inactive
94 | NIFWP | inactive
95 | YLCLWCVEQLMYCRPRRLEE | inactive
96 | VNWIVLSYHYNRYDVGNMAS | 2.87 ± 0.074

Row | Substance | amyloid nucleation score
97 | SSLITFAPIPSLYWDCFSRF | inactive
98 | DGDFIWISYVRKPKVNNDMF | inactive
99 | GIHHFF | inactive
100 | SRLWYSPGDYQVFKVRLHIW | inactive
101 | TVYSGWCTREVRICEPMNRG | inactive
102 | PGCTTN | inactive
103 | NCCNPCFVNLQSR | 2.66 ± 0.066
104 | SNASQLY | inactive
105 | DHFMNGMKQYTCRYFVLWPS | inactive
106 | CEEPFETIS | 0.949 ± 0.25
107 | SARRTVYLFQNSHRVHPFLF | inactive
108 | HWHRLTSCGSRLGTGVHVVL | inactive
109 | FWKFRGQTWYCFAGTDGISH | -0.002 ± 0.75
110 | CGGIAFRNFLMNSGMPLEWK | inactive
111 | INYSWFDLSMALTK | inactive
112 | GSRCCNSAFNKECLSITEHS | -0.485 ± 0.8
113 | MLSYYRFWCPVGRVVMMSFW | inactive
114 | IAYIT | inactive
115 | VSDKHVYCMEGCMP | inactive
116 | SVQFFPDCCQGELTTNTVRS | inactive
117 | SFMRCFNIVWYTSILLRYTW | inactive
118 | GHWSEKSDGTNKSYVVRSGM | inactive
